Assay results from US20050222029A1 (MYRIAD GENETICS, published 2005).

B1: ribosomal protein S6 kinase, 90 kDa, polypeptide 1 (p90RSK) 418-467 (enzyme, human, UniProt Q15418 418-467, looked up)
chain: YVVKETIGVGSYSECKRCVHKATNMEYAVKVIDKSKRDPSEEIEILLRYG
notes: range 418-467; bait (Gal4 DBD fusion); also called HU1
B2: VPS28 protein 27-221 (other, human, UniProt Q9UK41 27-221, looked up)
chain: YKNAREREKYDNMAELFAVVKTMQALEKAYIKDCVSPSEYTAACSRLLVQYKAAFRQVQGSEISSIDEFCRKFRLDCPLAMERIKEDRPITIKDDKGNLNRCIADVVSLFITVMDKLRLEIRAMDEIQPDLRELMETMHRMSHLPPDFEGRQTVSQWLQTLSGMSASDELDDSQVRQMLFDLESAYNAFNRFLHA
notes: prey (Gal4 AD-HA fusion); also called vacuolar protein sorting 28
B3: Survivin (BIRC5) 3-99 (other, human, UniProt O15392 3-99, looked up)
chain: APTLPPAWQPFLKDHRISTFKNWPFLEGCACTPERMAEAGFIHCPTENEPDLAQCFFCFKELEGWEPDDDPIEEHKKHSSGCAFLSVKKQFEELTLG
notes: range 3-99; bait (Gal4 DBD fusion); also called API4
B4: Survivin (BIRC5) 52-143 (other, human, UniProt O15392 52-142, looked up)
chain: PDLAQCFFCFKELEGWEPDDDPIEEHKKHSSGCAFLSVKKQFEELTLGEFLKLDRERAKNKIAKETNNKKKEFEETAKKVRRAIEQLAAMD
notes: range 52-143; bait (Gal4 DBD fusion); also called API4
B5: Actinin (ACTN1) 719-892 (other, human, UniProt P12814 719-892, looked up)
chain: QLLTTIARTINEVENQILTRDAKGISQEQMNEFRASFNHFDRDHSGTLGPEEFKACLISLGYDIGNDPQGEAEFARIMSIVDPNRLGVVTFQAFIDFMSRETADTDTADQVMASFKILAGDKNYITMDELRRELPPDQAEYCIARMAPYTGPDSVPGALDYMSFSTALYGESDL
notes: prey (Gal4 AD-HA fusion)
B6: Tumor Suppressor (TSG101) 140-270 (other, human, UniProt Q99816 140-270, looked up)
chain: PVFSRPISASYPPYQATGPPNTSYMPGMPGGISPYPSGYPPNPSGYPGCPYPPGGPYPATTSSQYPSQPPVTTVGPSRDGTISEDTIRASLISAVSDKLRWRMKEEMDRAQAELNALKRTEEDLKKGHQKL
notes: range 140-270; bait (Gal4 DBD fusion)
B7: syntaxin 2 (STX2) 156-261 (other, human, UniProt P32856 156-261, looked up)
chain: GRTTTDDELEEMLESGKPSIFTSDIISDSQITRQALNEIESRHKDIMKLETSIRELHEMFMDMAMFVETQGEMINNIERNVMNATDYVEHAKEETKKAIKYQSKAR
B8: v-akt murine thymoma viral oncogene homolog 2 (AKT2) 1-108 (enzyme, human, UniProt P31751 1-108, looked up)
chain: MNEVSVIKEGWLHKRGEYIKTWRPRYFLLKSDGSFIGYKERPEAPDQTLPPLNNFSVAECQLMKTERPRPNTFVIRCLQWTTVIERTFHVDSPDEREEWMRAIQMVAN
notes: bait (Gal4 DBD fusion)
B9: tetratricopeptide repeat domain 3 (TPRD) 1058-1189 (other, human, UniProt P53804 1058-1189, looked up)
chain: NRNSDSAGPFAVPDHLRQDVEEFEALYDQHSNEYVVRNKKLWDMNPKQKCSTLYDYFSQFLEEHGPLDMSNKMFSAEYEFFPEETRQILEKAGGLKPFLLGCPRFVVIDNCIALKKVASRLKKKRKKKNIKT
notes: prey (Gal4 AD-HA fusion)
B10: Survivin (BIRC5) 89-143 (other, human, UniProt O15392 89-142, looked up)
chain: VKKQFEELTLGEFLKLDRERAKNKIAKETNNKKKEFEETAKKVRRAIEQLAAMD
notes: range 89-143; bait (Gal4 DBD fusion); also called API4
B11: VPS28 protein 10-221 (other, human, UniProt Q9UK41 10-221, looked up)
chain: GIGAPGNKPELYEEVKLYKNAREREKYDNMAELFAVVKTMQALEKAYIKDCVSPSEYTAACSRLLVQYKAAFRQVQGSEISSIDEFCRKFRLDCPLAMERIKEDRPITIKDDKGNLNRCIADVVSLFITVMDKLRLEIRAMDEIQPDLRELMETMHRMSHLPPDFEGRQTVSQWLQTLSGMSASDELDDSQVRQMLFDLESAYNAFNRFLHA
notes: as for B2

How the values were obtained:
Assay in all cases: yeast two-hybrid
[1] = target: T1, upstream of N-ras, alt. transcript (798) (UNR) 110-528 (human, UniProt O75534 110-528)
T1 construct: prey (Gal4 AD-HA fusion)
T1 sequence (looked up): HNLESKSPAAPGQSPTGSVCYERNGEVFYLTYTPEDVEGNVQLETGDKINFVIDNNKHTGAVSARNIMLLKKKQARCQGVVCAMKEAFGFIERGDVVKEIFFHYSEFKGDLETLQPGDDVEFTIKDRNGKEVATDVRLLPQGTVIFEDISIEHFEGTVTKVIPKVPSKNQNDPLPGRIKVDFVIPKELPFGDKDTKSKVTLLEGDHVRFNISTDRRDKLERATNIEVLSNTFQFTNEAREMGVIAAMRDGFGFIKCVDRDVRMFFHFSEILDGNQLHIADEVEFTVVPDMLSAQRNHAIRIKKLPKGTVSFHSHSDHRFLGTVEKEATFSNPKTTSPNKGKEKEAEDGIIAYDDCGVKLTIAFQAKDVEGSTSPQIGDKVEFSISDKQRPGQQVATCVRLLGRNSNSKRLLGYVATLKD

[2] = target: T2, Tumor Suppressor (TSG101) 147-391 (human, UniProt Q99816 147-390)
T2 construct: bait (Gal4 DBD fusion)
T2 sequence (looked up): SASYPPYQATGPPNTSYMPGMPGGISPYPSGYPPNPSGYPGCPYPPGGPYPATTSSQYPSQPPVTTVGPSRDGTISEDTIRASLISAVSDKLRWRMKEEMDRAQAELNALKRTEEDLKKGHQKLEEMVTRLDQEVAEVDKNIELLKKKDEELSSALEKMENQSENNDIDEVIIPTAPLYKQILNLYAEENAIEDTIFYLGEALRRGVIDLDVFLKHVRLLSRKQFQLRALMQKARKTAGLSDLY

[3] = target: T3, DNA helicase II, ATP-dependent, 70 kD subunit (KU70) 131-403 (table prints 1131-4404) (human, UniProt P12956 131-403)
T3 construct: prey (Gal4 AD-HA fusion)
T3 sequence (P12956 131-403 limits assumed): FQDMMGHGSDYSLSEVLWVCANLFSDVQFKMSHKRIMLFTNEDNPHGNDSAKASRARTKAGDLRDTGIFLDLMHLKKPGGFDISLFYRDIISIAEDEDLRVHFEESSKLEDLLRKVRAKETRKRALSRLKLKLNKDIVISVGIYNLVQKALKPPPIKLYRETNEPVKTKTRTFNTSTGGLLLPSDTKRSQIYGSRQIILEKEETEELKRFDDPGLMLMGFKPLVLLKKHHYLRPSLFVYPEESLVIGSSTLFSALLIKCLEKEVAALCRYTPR

[4] = target: T4, Catenin, alpha 2 (A2-CAT) 1-166 (human, UniProt P26232 1-166)
T4 construct: prey (Gal4 AD-HA fusion)
T4 sequence (looked up): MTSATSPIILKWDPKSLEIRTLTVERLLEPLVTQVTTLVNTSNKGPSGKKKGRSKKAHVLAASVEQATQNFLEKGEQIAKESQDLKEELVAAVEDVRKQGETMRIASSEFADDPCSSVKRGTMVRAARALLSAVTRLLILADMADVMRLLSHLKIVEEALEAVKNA

[5] = target: T5, Catenin, alpha 2 (A2-CAT) 55-487 (human, UniProt P26232 55-487)
T5 construct: prey (Gal4 AD-HA fusion)
T5 sequence (looked up): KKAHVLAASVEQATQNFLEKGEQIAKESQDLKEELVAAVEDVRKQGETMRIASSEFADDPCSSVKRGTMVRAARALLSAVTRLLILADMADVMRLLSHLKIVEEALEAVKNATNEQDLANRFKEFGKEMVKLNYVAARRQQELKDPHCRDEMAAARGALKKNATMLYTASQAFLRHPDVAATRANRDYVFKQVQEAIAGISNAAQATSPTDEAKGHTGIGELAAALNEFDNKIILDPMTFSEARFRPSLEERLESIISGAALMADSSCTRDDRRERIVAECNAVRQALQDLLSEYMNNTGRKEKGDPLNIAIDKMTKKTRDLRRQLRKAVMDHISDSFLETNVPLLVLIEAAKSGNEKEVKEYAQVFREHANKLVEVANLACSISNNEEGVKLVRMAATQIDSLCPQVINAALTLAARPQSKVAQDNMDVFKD

[6] = target: T6, Tumor Suppressor (TSG101) 1-274 (human, UniProt Q99816 1-274)
T6 construct: range 1-274; bait (Gal4 DBD fusion)
T6 sequence (looked up): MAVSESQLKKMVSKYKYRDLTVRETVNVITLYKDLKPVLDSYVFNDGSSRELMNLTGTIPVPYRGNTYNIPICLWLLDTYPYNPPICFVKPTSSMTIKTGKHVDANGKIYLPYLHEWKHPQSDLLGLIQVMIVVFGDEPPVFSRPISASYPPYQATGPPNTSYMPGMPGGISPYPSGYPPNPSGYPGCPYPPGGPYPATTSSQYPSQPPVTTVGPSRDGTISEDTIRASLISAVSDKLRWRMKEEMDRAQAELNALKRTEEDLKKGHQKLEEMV

[7] = target: T7, Hypothetical protein FLJ10540 2-132 (human, UniProt Q53EZ4 2-132)
T7 construct: prey (Gal4 AD-HA fusion)
T7 sequence (looked up): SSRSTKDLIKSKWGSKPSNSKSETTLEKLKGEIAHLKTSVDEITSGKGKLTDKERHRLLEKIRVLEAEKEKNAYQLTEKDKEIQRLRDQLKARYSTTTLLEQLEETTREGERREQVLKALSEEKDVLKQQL

[8] = target: T8, Hypothetical protein FLJ10540 1-140 (human, UniProt Q53EZ4 1-140)
T8 construct: range 1-140; prey (Gal4 AD-HA fusion)
T8 sequence (looked up): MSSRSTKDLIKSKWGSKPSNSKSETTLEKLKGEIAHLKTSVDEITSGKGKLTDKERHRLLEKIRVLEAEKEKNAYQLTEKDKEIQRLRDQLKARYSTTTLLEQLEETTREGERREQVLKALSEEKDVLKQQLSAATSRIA

[9] = target: T9, Apolipoprotein A-I (APOA1) 106-267 (human, UniProt P02647 106-267)
T9 construct: bait (Gal4 DBD fusion)
T9 sequence (P02647 106-267 limits assumed, form in doubt): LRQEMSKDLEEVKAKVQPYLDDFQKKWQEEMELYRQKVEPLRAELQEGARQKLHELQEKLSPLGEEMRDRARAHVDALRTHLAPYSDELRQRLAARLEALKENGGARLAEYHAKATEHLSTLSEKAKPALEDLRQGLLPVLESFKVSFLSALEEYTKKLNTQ

[10] = target: T10, intracellular chloride channel protein (CLIC1) 98-210 (human, UniProt O00299 98-210)
T10 construct: range 98-210; prey (Gal4 AD-HA fusion); also called NCC27

[11] = target: T11, intracellular chloride channel protein (CLIC1) 51-210 (human, UniProt O00299 51-210)
T11 construct: range 51-210; prey (Gal4 AD-HA fusion); also called NCC27

[12] = target: B9
[13] = target: T12, v-akt murine thymoma viral oncogene homolog 1 (AKT1) 1-150 (human, UniProt P31749 1-150)
T12 construct: range 1-150; bait (Gal4 DBD fusion)
T12 sequence (P31749 1-150 limits assumed): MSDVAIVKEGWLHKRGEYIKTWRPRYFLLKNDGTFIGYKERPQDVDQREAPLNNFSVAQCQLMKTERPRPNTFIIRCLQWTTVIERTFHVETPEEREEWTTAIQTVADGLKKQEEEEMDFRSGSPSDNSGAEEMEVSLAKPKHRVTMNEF

[14] = target: T13, v-akt murine thymoma viral oncogene homolog 2 (AKT2) 1-152 (human, UniProt P31751 1-152)
T13 construct: bait (Gal4 DBD fusion)
T13 sequence (looked up): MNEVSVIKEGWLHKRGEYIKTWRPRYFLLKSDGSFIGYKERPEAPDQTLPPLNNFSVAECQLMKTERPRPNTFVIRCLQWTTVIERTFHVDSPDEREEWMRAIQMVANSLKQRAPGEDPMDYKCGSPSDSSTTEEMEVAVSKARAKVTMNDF

[15] = target: T14, Cytoplasmic dynein light chain 1 (HDLC1) 1-90 (human, UniProt P63167 1-89)
T14 construct: range 1-90; prey (Gal4 AD-HA fusion)
T14 sequence (P63167 whole entry, the tested form may be a part): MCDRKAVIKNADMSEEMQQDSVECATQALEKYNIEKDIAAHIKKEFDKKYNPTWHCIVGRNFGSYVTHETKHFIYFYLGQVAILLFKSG

B1: binds [1].

B2: binds [2].

B3: binds [3].

B4: binds [4]; binds [5].

B5: binds [6].

B6: binds [7]; binds [8].

B7: binds [9].

B8: binds [10]; binds [11]; binds [12].

B9: binds [13]; binds [14].

B10: binds [15].

B11: binds [2].
